Patent US20110124071A1, “METHODS AND COMPOSITIONS FOR PRODUCING HYDROCARBONS” (priority 2009, published 2011)

B1: PCC7942_orf1594 protein (Synechococcus elongatus PCC 7942 = FACHB-805) (protein)
chain: MFGLIGHLTSLEQARDVSRRMGYDEYADQGLEFWSSAPPQIVDEITVTSATGKVIHGRYIESCFLPEMLAARRFKTATRKVLNAMSHAQKHGIDISALGGFTSIIFENFDLASLRQVRDTTLEFERFTTGNTHTAYVICRQVEAAAKTLGIDITQATVAVVGATGDIGSAVCRWLDLKLGVGDLILTARNQERLDNLQAELGRGKILPLEAALPEADFIVWVASMPQGVVIDPATLKQPCVLIDGGYPKNLGSKVQGEGIYVLNGGVVEHCFDIDWQIMSAAEMARPERQMFACFAEAMLLEFEGWHTNFSWGRNQITIEKMEAIGEASVRHGFQPLALAI
notes: His-tag (C); made in house; host or cells: E. coli BL21 (DE3)
B2: PMM0533: Prochlorococcus marinus CCMP1986 putative aldehyde-generating enzyme (SEQ ID NO: 72) (protein, listed as Prochlorococcus marinus)
chain: MFGLIGHSTSFEDAKRKASLLGFDHIADGDLDVWCTAPPQLVENVEVKSAIGISIEGSYIDSCFVPEMLSRFKTARRKVLNAMELAQKKGINITALGGFTSIIFENFNLLQHKQIRNTSLEWERFTTGNTHTAWVICRQLEMNAPKIGIDLKSATVAVVGATGDIGSAVCRWLINKTGIGELLLVARQKEPLDSLQKELDGGTIKNLDEALPEADIVVWVASMPKTMEIDANNLKQPCLMIDGGYPKNLDEKFQGNNIHVVKGGIVRFFNDIGWNMMELAEMQNPQREMFACFAEAMILEFEKCHTNFSWGRNNISLEKMEFIGAASVKHGFSAIGLDKHPKVLAV

Legend:
[1] = system: T1, Prochlorococcus marinus CCMP1986 PMM0532 (NP-892650; putative decarbonylase)
T1 sequence: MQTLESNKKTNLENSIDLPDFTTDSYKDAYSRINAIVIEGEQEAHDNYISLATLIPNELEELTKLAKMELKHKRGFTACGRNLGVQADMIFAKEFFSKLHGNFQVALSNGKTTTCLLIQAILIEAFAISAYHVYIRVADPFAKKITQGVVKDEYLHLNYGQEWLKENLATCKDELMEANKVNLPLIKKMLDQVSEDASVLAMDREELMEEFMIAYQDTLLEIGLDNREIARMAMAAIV

[2] = target: octadecenoyl-ACP
[3] = substrate: CCCCCCCCCCCCCCCCCC(=O)SCCNC(=O)CCNC(=O)[C@H](O)C(C)(C)COP(=O)(O)OP(=O)(O)OC[C@H]1O[C@@H](n2cnc3c(N)ncnc32)[C@H](O)[C@@H]1OP(=O)(O)O; assay: acyl-ACP or acyl-CoA reductase enzyme assay, GC/MS; type: biochemical; details: other: in the presence of 2 mM NADPH; pH 7.5; 37.0 °C
Description: The genomic DNA encoding S. elongatus PCC7492 orf1594 (SEQ ID NO: 66) was cloned into the NcoI and XhoI sites of vector pET-28b under the control of the T7 promoter. The resulting PCC7942_orf1594 protein contained a C-terminal His-tag. An E. coli BL21 strain (DE3) (Invitrogen) was transformed with the plasmid and PCC7942_orf1594 protein was expressed and purified as described in Example 22. The protein solution was stored in the following buffer: 50 mM sodium phosphate, pH 7.5, 100 mM NaCl, 1 mM THP, 10% glycerol. Protein concentration was determined using the Bradford assay (Bio-Rad). 2 mg/ml of PCC7942 orf1594 protein was obtained.
To test PCC7942_orf1594 protein for acyl-ACP or acyl-CoA reductase activity, the following enzyme assays were set-up. 100 μl reactions were set-up in 50 mM Tris-HCl buffer at pH 7.5 with the following components at their respective final concentrations: 10 μM of purified PCC7942_orf1594 protein, 0.01-1 mM acyl-CoA or acyl-ACP, 2 mM MgCl2, 0.2-2 mM NADPH. The reactions were incubated for 1 h at 37° C. and where stopped by adding 100 μl ethyl acetate (containing 5 mg/l 1-octadecene as internal standard). […] 80 μl of the top layer were transferred into GC glass vials and analyzed by GC/MS as described in Example 26. The amount of aldehyde formed was calculated based on the internal standard.

[4] = system: E. coli MG1655; assay: Heterologous expression of putative aldehyde-generating enzyme alone in E. coli, GC-MS of extracts; type: cell-based; details: enzyme expressed alone in E. coli MG1655, M9 minimal media, 37° C.
Description: The genomic DNA encoding Synechococcus elongatus PCC7942 orf1594 (YP—400611; putative aldehyde-generating enzyme) (SEQ ID NO: 65) was amplified and cloned into the NcoI and EcoRI sites of vector OP-80 (pCL1920 derivative) under the control of the Ptrc promoter. The resulting construct (“OP80-PCC7942—1594”) was transformed into E. coli MG1655 and the cells were grown at 37° C. in M9 minimal media with 1% (w/v) glucose as carbon source and supplemented with 100 μg/ml spectinomycin. When the culture reached OD600 of 0.8-1.0, it was induced with 1 mM IPTG and cells were grown for an additional 18-20 h at 37° C. Cells from 0.5 ml of culture were extracted with 0.5 ml of ethyl acetate. After sonication for 60 min, the sample was centrifuged at 15,000 rpm for 5 min. The solvent layer was analyzed by GC-MS as described in Example 1.
The genomic DNA encoding Cyanothece sp. ATCC51142 cce—1430 (YP—001802846; putative aldehyde-generating enzyme) (SEQ ID NO: 70) was amplified and cloned into the NcoI and EcoRI sites of vector OP-80 (pCL1920 derivative) under the control of the Ptrc promoter. The resulting construct was transformed into E. coli MG1655 and the cells were grown at 37° C. in M9 minimal media with 1% (w/v) glucose as carbon source and supplemented with 100 μg/ml spectinomycin. The cells were cultured and extracted as in Example 3 and analyzed by GC-MS as described in Example 26.
The genomic DNA encoding P. mariunus CCMP1986 PMM0533 (NP_892651; putative aldehyde-generating enzyme) (SEQ ID NO: 72) and Prochlorococcus mariunus CCMP1986 PMM0532 (NP_892650; putative decarbonylase) (SEQ ID NO: 19) were amplified and cloned into the NcoI and EcoRI sites of vector OP-80 and the NdeI and XhoI sites of vector OP-183, respectively. The resulting constructs were separately transformed and cotransformed into E. coli MG1655 and the cells were grown at 37° C. in M9 minimal media supplemented with 100 μg/ml spectinomycin and 100 μg/ml carbenicillin. The cells were cultured and extracted as in Example 3 and analyzed by GC-MS as described in Example 26.

[5] = system: E. coli MG1655 ΔfadE lacZ::Ptrc ′tesA-fadD; assay: Heterologous expression in a fatty acyl-CoA-producing E. coli strain, GC-MS; type: cell-based; details: reductase coexpressed with a fatty aldehyde decarbonylase
Text: The genomic DNA encoding Acaryochloris marina MBIC11017 AM1—4041 (YP—001518340; putative fatty aldehyde decarbonylase) (SEQ ID NO: 9) was synthesized and cloned into the NdeI and XhoI sites of vector OP-183 (pACYC derivative) under the control of the Ptrc promoter. The resulting construct was cotransformed with OP80-PCC7942—1594 into E. coli MG1655 ΔfadE lacZ::Ptrc ′tesA-fadD. This strain expresses a cytoplasmic version of the E. coli thioesterase, ′TesA, and the E. coli acyl-CoA synthetase, FadD, under the control of the Ptrc promoter, and therefore produces fatty acyl-CoAs. The cells were grown at 37° C. in M9 minimal media supplemented with 100 μg/ml spectinomycin and 100 μg/ml carbenicillin. The cells were cultured and extracted as in Example 3 and analyzed by GC-MS as described in Example 1.
The genomic DNA encoding Synechocystis sp. PCC6803 sll0208 (NP_442147; putative fatty aldehyde decarbonylase) (SEQ ID NO: 3) was synthesized and cloned into the NdeI and XhoI sites of vector OP-183 (pACYC derivative) under the control of the Ptrc promoter. The genomic DNA encoding Synechocystis sp. PCC6803 sll0209 (NP_442146; acyl-ACP reductase) (SEQ ID NO: 68) was synthesized and cloned into the NcoI and EcoRI sites of vector OP-183 (pACYC derivative) under the control of the Ptrc promoter. The resulting constructs were cotransformed with into E. coli MG1655 ΔfadE lacZ::Ptrc ′tesA-fadD. This strain expresses a cytoplasmic version of the E. coli thioesterase, ′TesA, and the E. coli acyl-CoA synthetase, FadD, under the control of the Ptrc promoter, and therefore produces fatty acyl-CoAs. The cells were grown at 37° C. in M9 minimal media supplemented with 100 μg/ml spectinomycin and 100 μg/ml carbenicillin. The cells were cultured and extracted as in Example 3 and analyzed by GC-MS as described in Example 26.

Row | Molecule | fatty alcohol, alkane and alkene production (GC/MS) in E. coli MG1655, PMM0533 alone against PMM0533 coexpressed with PMM0532 [1] | Km for the reduction of octadecenoyl-ACP in the presence of 2 mM NADPH (in vitro reductase assay, GC/MS) [2] | Km [3] | production of fatty aldehydes and fatty alcohols [4] | use of acyl-CoA as substrate to produce fatty aldehydes [5]
1 | Prochlorococcus marinus CCMP1986 PMM0533 (NP-892651; putative aldehyde-generating enzyme) | E. coli cells transformed with only the P. mariunus CCMP1986 PMM0533-bearing vector did not produce any fatty aldehydes or fatty alcohols. However, E. coli cells cotransformed with PMM0533 and PMM0532-bearing vectors produced hexadecanol, pentadecane and heptadecene | – | – | – | –
2 | B1 | – | 7.8 ± 2 µM | 45 ± 20 µM | generates aldehydes in vivo | able to use acyl-CoA as a substrate
3 | B2 | – | – | – | did not produce any fatty aldehydes or fatty alcohols | –
